The values below come from CN115043938A (DUAN LIANGWEI; JIANG ZHIHUA; WANG HUI, dated 2022).

The target of one assay is SARS-CoV-2野生型 S蛋白 (假病毒) (SARS-CoV-2 野生型, UniProt P0DTC2 14-1273). Description: cell-based or functional assay.
Assay [1] addresses 新型冠状病毒野生型RBD蛋白 (RBD-WT, cat#Z03479, Gensript) (SARS-CoV-2 野生型, UniProt P0DTC2 319-541). Briefly: BIAcore SPR, RBD immobilised on CM5 chip, antibody as analyte, 25℃, 1:1 model. On the technique in general: SPR reads the build-up and loss of mass on a sensor chip optically.

B1: 抗体Amb2 (antibody, V domains shown)
VH: EVQLLESGPGLVKPSETLSLTCTVSGGSISNSSYYWGWIRQPPGKGLEWIGSIYYSGSTYYNPSLKSRVTISVDTSKNQFSLKLSSVTAADTGVYYCASWLYGDPISFDYWGQGTLVTVSS
VL: not shown
For orientation: Kd means the free concentration of one partner at which half of the binding sites on the other are occupied at equilibrium, for simple one-to-one binding. For the molecule B1, the “假病毒中和 IC50” value with SARS-CoV-2野生型 S蛋白 (假病毒) came to 0.064 µg/mL. In addition, binding in assay [1] was characterised by a dissociation constant (Kd) of 164 nM.

B2: 抗体Amb1 (antibody, V domains shown)
VH: EVQLLESGTEVKKPGSSVKVSCKASGGTFSSYAISWVRQAPGQGLEWMGGIIPILGIANYAQKFQGRVTITADKSTSTAYMELSSLRSEDTAVYYCARERGYSGYGAAYYFDYWGQGTLVTVSS
VL: QSVLTQAPSVSGAPGQSVTISCTGSSSNIGAGYDVHWYQQLPGTAPKLLIYGNNNRPSGVPDRFSGSKSGTSASLAITGLQAEDEADYYCQSYDSSLSKGVFGGGTKLTVL
As to B2, the “假病毒中和 IC50” value in the assay with SARS-CoV-2野生型 S蛋白 (假病毒) is 0.13 µg/mL. In assay [1], this molecule yielded a Kd of 151 nM.
